These results are taken from patent US7667100B2, “Nucleic acid compositions conferring herbicide resistance” (Dow AgroSciences LLC, priority 2002, dated 2010).

Data set [1] has as its system Nicotiana benthamiana. The data set can be described thus: Evaluation of auxin tolerance in greenhouse plants inoculated with clone transcript and sprayed with herbicide. The conditions noted are these: greenhouse; 30% or more of test population tolerant by 14 dat. It counts as in vivo. The method, then:
All primary hit sequences were evaluated for tolerance in larger plants, maintained under greenhouse conditions as described below.
Plant Growth and Maintenance. Nb seeds were sown in 6.5 cm pots filled with Redi-earth medium (The Scotts Company, Marysville, Ohio) pre-wetted by injection of Hoagland's fertilizer solution [all from the Scotts Company: 147 kg Peters Excel 15-15-15 Cal-Mag, 68 kg Peters Excel 15-0-0 Cal-Lite (15% Ca), and 45 kg Peters Excel 10-0-0 MagNitrate (10% Mg) in hot tap water to 596 L total volume] into irrigation water at a ratio of 200:1, using an injection system (H. E. Anderson, Muskogee Okla,). Seededpots were placed in the greenhouse for 1 day, transferred to a 27° C. germination chamber (Carolina Greenhouses, Kinston, N.C.) for 2 days, and then returned to the greenhouse. Shade curtains (33% transmittance) were used in the greenhouse to reduce solar intensity. To ensure 16 hour day length and supplement solar radiation on overcast days, artificial lighting consisting of a 1:1 mixture of metal halide and high pressure Sylvania sodium lamps was used, delivering approximately 220 μmol/m^2/s. Evaporative cooling and steam heat were used to maintain a daytime set point of 27° C. and a nighttime temperature of 22° C. At approximately 7 days post sowing (dps), seedlings were thinned to one seedling per pot and at 17 to 21 dps, the pots were spaced farther apart to accommodate plant growth. Plants were watered with Hoagland's solution as required. Following inoculation, waste irrigation water was collected and treated with 0.5% sodium hypochlorite for 10 minutes to neutralize any viral contamination before discharging into the municipal sewer.
Plant Inoculation. For each clone, 50 test plants as well as 10 GFP and bar (Thompson et al., EMBO J. 6:2519 [19870]) negative control plants were inoculated as follows: 2.0 mL of inoculum per clone were prepared by combining equal volumes of NCAP transcript and FES buffer [0.1 M glycine, 0.06 M K2HPO4, 1% sodium pyrophosphate, 1% diatomaceous earth (Sigma Chemical Company, St. Louis, Mo.), and either 1% silicon carbide (Aldrich Chemical Company, Milwaukee, Wis.), or 1% Bentonite (Sigma Chemical Company, St. Louis, Mo.)]. The inoculum was applied to each plant at 17 days post sowing by pipetting onto the upper surface of leaves 3 and 4 (˜20 μL per leaf). The inoculum was then spread across each leaf surface using a 3″ cotton tipped applicator (Calapro Swab, Fisher Scientific, Pittsburgh, Pa.) and a gloved finger to support the leaf. Following inoculation the plants were misted with deionized water.
Infection Scoring. At 8 days post inoculation (dpi), the plants were visually examined and a numerical score was assigned to each plant to indicate the extent of viral infection symptoms: 0=no infection, 1=possible infection, 2=infection symptoms limited to leaves <50-75% fully expanded, 3=typical systemic infection, 4=atypically severe infection, often accompanied by moderate to severe wilting and/or necrosis. Plants receiving an infection rating of 0, 1, or 4 were discarded.
Herbicide spraying. At 9 dpi, the well infected plants (infection score of 3, sometimes 2) were divided into 3 treatment groups. Group 1, to be sprayed with solvent only, contained 4 plants per test clone (2 plants per negative control) and Groups 2 and 3, to be treated with 13 or 40 g ae/ha, respectively, each consisted of 12 test plants per clone and 2 plants per negative control. […]

For data set [2], the system named is Nicotiana benthamiana. The data set can be described thus: Cross-resistance testing against six auxin compounds (greenhouse). The data set is classed as in vivo. The text has this: Six compounds, representing five classes of auxin chemistry, were selected for testing the extent of auxinic tolerance of five hit sequences (129965 (SEQ ID NO:10), 130213 (SEQ ID NO: 14), 130294 (SEQ ID NO:360), 130994 (SEQ ID NO:361), and 129870 (SEQ ID NO:359)). The compounds included the following: • 1) quinclorac (BASF Corp., Research Triangle, N.C.) • 2) (2,4-dichlorophenoxy) acetic acid (Dow AgroSciences, Indianapolis, Ind.) • 3) dicamba (Monsanto, St. Louis, Mo.) • 4) benazolin (AgrEvo USA Company, Wilmington, Del.) • 5) picloram (Dow AgroSciences, Indianapolis, Ind.) • 6) 4-amino-3,6-dichloropyridine-2-carboxylic acid (Dow AgroSciences, Indianapolis, Ind.) Compound #6 served as a positive control, as these five sequences were identified for their herbicide tolerant function using this auxin (see Example 9). Compound #1 represents the quinoline carboxylic acid chemical family, #2 is in the phenoxy carboxylic acid class, #3 is benzoic acid chemistry, #4 is unique to any currently defined class, and #5 is in the same family as the positive control, pyridine carboxylic acids.
The protocol was essentially the same as that described in Example 9 for greenhouse evaluations. However, an individual experiment consisted of 200 test plants plus 35 GFP and 35 bar negative control plants inoculated per clone. […] Two doses per auxin were tested, with as many as 12 well-infected test plants and 2 of each of the negative controls per dose.
The six auxin solutions were prepared by dissolving solid compound in General Purpose Solvent (GPS: 97%DMSO: 3% acetone) to achieve the following spray rates (g ae/ha) when using the spray applicator and parameters outlined in Example 9: Compound #1) 200; 2) 42; 3) 64; 4) 200; 5) 10; 6) 10. From each of these solutions, a portion was diluted with an equal volume of GPS, resulting in 1× (“high dose”) and ½× (“low dose”) concentrations for spraying. Before spray application, each auxin solution was mixed with an equal volume of diluent containing surfactants for effective penetration. The diluent was prepared as follows: 420 mL GPS, 460 mL DI water, 120 mL isopropyl alcohol, 10.167 mL Agri-Dex (Helena Chemical Co., Memphis, Tenn.), and 0.167 mL Triton X-155 (Sigma Chemical Co., St. Louis, Mo.). In addition to the 200 and 100 g ae/ha rates tested for Compound #4 (benazolin), a concentration of 250 g ae/ha was also formulated as described above and tested.
Plants were sprayed and evaluated as described in Example 9. FIG. 7 summarizes the sequences tested and the highest dose of the compounds against which tolerance was observed. […] Results are reported in FIG. 7 for each of the trials with each construct.
The positive control (Compound #6) was formulated differently in this set of evaluations from that described in Example 9, for consistency in the solvent/surfactant background from which to compare the activity of the individual sequences against each auxin. Thus, the spray rate used for evaluation was lower than previous experiments, 5 vs. 13 g ae/ha. The need to lower the dose with this formulation to prevent total chlorosis and/or necrosis was likely due to the addition of DMSO, Agri-Dex, and Triton X-155 which were not used in Example 9.

B1: 130994: Poppy cDNA clone; auxin tolerance hit sequence (nucleic acid)
DNA: GAATTCAATCAAATGGCTACTGCTAGAGTTTTAGCTGCTAGTATGTTGCATGAATGCAACAACACTCACAGTGCTTCATTTCTTTTGAGACAATCTTCTTTCATCTTACCTATTAAACATCAAAGTATTAATTTCAGTAGAAGAGCATCTTCTAGGAGAGCTTTTACTTGCAAATCTCTTTACAAACCTGAAATTCAAATCAAACAAGAAGGTGAACCTCAAACCCTAGATTACAGAGTCTTCTTTCATGATAAATCTGGCAAAAAGCTTTCACCTTGGCATGATGTACCATTGCAATTGGGTGATGGAGTGTTCAATTTTATCGTGGAAATACCAAAAGAGACAAGTGCAAAGATGGAAGTTGCAACTGATGAGCCATATACTCCCATTAAACAGGACACCAAGAAGGGAAAACTTAGATTCTACCCCTACAACATCAATTGGAACTATGGATTGCTCCCACAGACATGGGAAGACCCAACAGTAGCTAATTCTGAAGTTGAAGGGGCATTCGGAGATAATGATCCAGTTGATGTTGTTGAAATTGGGGAGAGGCAAGGAAAAATTGGCGAGATTCTTAAAGTCAAGCCTTTAGGTGCTTTGGCTATGATTGACGAAGGAGAACTCGACTGGAAAATTGTTGCGATTTCGTTGGATGACCCAAAAGCTTCACTCGTCAATGATGTTGGTGATGTTGAGAAACATTTCCCGGGCACTCTCACTGCTATAAGAGATTGGTTCAGAGACTACAAGATCCCAGATGGAAAGCCTGCCAATAAGTTTGGACTTGGGAACAAAGCAGCCAACAAGGATTATGCTCTGAAGGTAATAACTGAAACCAACGAAGCTTGGGCTAAACTTGTCAAGAGAACTGTTCCTGCTGGGGAGCTCTCCCTTCTGTAAATTTTGAATTTTTAAAAGTTGAAGATAAGAGGCACTTTGGCCCGCTCCTATCCCCCTCCTCTCTCTATTGTTTTCTTTCATGCTGGATTCCAAACAAACTTCCTCCAATTTTTTGGACGAAGTATTGATAATTTCTAATCATTGAGCTCCATTTTTCAAAAAAAAAAAA
modifications: Poppy
Regarding B1, the “reproducibility of auxin tolerance from Trial #1 to Trial #2” value with Nicotiana benthamiana [1] is recorded as “reproducible auxin tolerance”. Moreover, the “tolerance to picloram (Compound #5)” value with Nicotiana benthamiana [2] (10 g ae/ha and 1/2x) is on record as “demonstrated tolerance to each of the three compounds using the 35% injury threshold”. In addition, the “tolerance to positive control 4-amino-3,6-dichloropyridine-2-carboxylic acid (Compound #6)” value in the data set on Nicotiana benthamiana [2] (10 g ae/ha and 1/2x (5 g ae/ha)) is “tolerance consistently occurred at the lower threshold (25% injury or less)”. For the same molecule, the “tolerance to dicamba (Compound #3)” value in the data set with Nicotiana benthamiana [2] (64 g ae/ha and 1/2x) is reported as “demonstrated tolerance to each of the three compounds using the 35% injury threshold”. In the data set on Nicotiana benthamiana [2] (200 g ae/ha and 1/2x), the “tolerance to quinclorac (Compound #1)” value was “demonstrated tolerance to each of the three compounds using the 35% injury threshold”. For the same molecule, in the data set on Nicotiana benthamiana [2] (two trials, two doses per auxin, thresholds 25% or 35% injury or less), the “extent of cross-resistance to the six auxin compounds” value is “tolerance was observed against four compounds”.
